Measured values: patent US20040009511A1, “Identification of compounds which stimulate bone formation using a cell-based screening assay targeting BMP signaling” (priority 2002, published 2004)

What was measured:
[1] = test system: BMP production in MG-63 cells; test: Conditioned medium of treated MG-63 cells tested on 2T3 C-17 reporter cells; assay type: cell-based, human; details: MG-63 treated 1 and 5 hours, washed, 24 hour CM; 2T3 C-17 treated with CM 48 hours
Protocol: 2T3 C-17 cells were then treated with said CM for 48 hours.

[2] = test system: 9×SBE-6×OSE2-OC-luc reporter construct in 2T3 C-17 cells; test: Luciferase assay, 9×SBE-6×OSE2-OC-luc reporter stably transfected in 2T3 clone C-17; assay type: cell-based; parameters: Luciferase Activity: unit not given here; details: for Effect on luciferase activity of the reporter construct: 2T3 C-17 cells
Protocol: (§1) An oligonucleotide containing 9 copies of Smad1 response element (9×SBE) and 6 copies of Cbfa1 response element (6×OSE2) was synthesized in the DNA laboratory at University of Texas Health Science Center at San Antonio. The osteocalcin basal promoter (OC, −155/+1) was amplified by Polymerase Chain Reaction (PCR) using mouse genomic DNA as a template and cloned into pGL3 vector. An 9×SBE-6×OSE2 oligonucleotide was cloned upstream of osteocalcin basal promoter.
(§2) C2C12 and 2T3 cells were plated in 6-well culture plates at densities of 4×10^5 and 2×10^5 cells/well and cultured with DMEM or α minimal essential medium (α MEM) supplemented with 10% FCS for 24 hours. A 9×SBE-6×OSE2-OC-luc-reporter construct (2 μg/well) was co-transfected with pcDNA3 empty vector (0.2 mg/well) in C2C12 and 2T3 cells using lipofactamine plus reagents (Gibco/BRL). Forty eight hours later, G418 (200 μg/ml) was added to the culture plates. Four weeks after G418 selection, the G418 resistant cells were plated in 96-well plates at the density of 1 cell/well and cloned by limiting dilution method.
(§3) C2C12 and 2T3 cells, in which 9×SBE-6×OSE2-OC-luc-reporter construct was stably transfected, were plated in 96-well culture plates at densities of 1×10^4 and 0.5×10^4 cells/well and cultured for 24 hours. The medium was changed to fresh medium supplemented with 2% FCS and different growth factors or hormone were added to culture medium for 24 hours or different compounds were added to culture medium for 2, 6, 12, 24 and 48 hours. The cell lysates were extracted and luciferase activities were determined by luciferase assay kit (Promega, Madison, Wis.) using a Luminometer.
(§4) At the end of the incubation, the cell lysates were extracted using lysis buffer and luciferase activities were measured using a luciferase assay kit (Promega).

[3] = test system: 9×SBE-6×OSE2-OC-luc reporter construct; test: Luciferase assay, 9×SBE-6×OSE2-OC-luc reporter construct, cells not specified; assay type: cell-based; details: stimulation of luciferase activity; stated for C2C12 C-10-62 and 2T3 C-17 without distinction
From the text: as §1, §3
Further, a reporter construct which contains multiple copies of both Smad1 (SBE) and Cbfa1 (OSE2) response elements (9×SBE-6×OSE2-OC-luc) was made.

[4] = test system: 9×SBE-6×OSE2-OC-luc reporter construct in C2C12 C-10-62 cells; test: Luciferase assay, 9×SBE-6×OSE2-OC-luc reporter stably transfected in C2C12 clone C-10-62; assay type: cell-based; details: 24 hours
Protocol: as §1, §2, §3, §4

[5] = Epoxomicin 0.0156 μM, cell type not given
[6] = Epoxomicin 0.0625 μM, cell type not given
[7] = Epoxomicin 0.125 μM, cell type not given
[8] = Epoxomicin 0.25 μM, cell type not given
[9] = Epoxomicin 0.5 μM, cell type not given
[10] = Epoxomicin 1 μM, cell type not given
[11] = BMP-4 0.049 ng/ml, 24 hours, 2T3 clone 17
[12] = BMP-4 0.098 ng/ml, 24 hours, 2T3 clone 17
[13] = BMP-4 0.195 ng/ml, 24 hours, 2T3 clone 17
[14] = BMP-4 0.39 ng/ml, 24 hours, 2T3 clone 17
[15] = BMP-4 0.78 ng/ml, 24 hours, 2T3 clone 17
[16] = BMP-4 1.56 ng/ml, 24 hours, 2T3 clone 17
[17] = BMP-4 3.125 ng/ml, 24 hours, 2T3 clone 17
[18] = BMP-4 6.25 ng/ml, 24 hours, 2T3 clone 17
[19] = BMP-4 12.5 ng/ml, 24 hours, 2T3 clone 17
[20] = BMP-4 25 ng/ml, 24 hours, 2T3 clone 17
[21] = BMP-4 50 ng/ml, 24 hours, 2T3 clone 17
[22] = BMP-4 100 ng/ml, 24 hours, 2T3 clone 17
[23] = BMP-7 1.95 ng/ml, 24 hours, 2T3 clone 17
[24] = BMP-7 3.91 ng/ml, 24 hours, 2T3 clone 17
[25] = BMP-7 7.81 ng/ml, 24 hours, 2T3 clone 17
[26] = BMP-7 15.625 ng/ml, 24 hours, 2T3 clone 17
[27] = BMP-7 31.25 ng/ml, 24 hours, 2T3 clone 17
[28] = BMP-7 62.5 ng/ml, 24 hours, 2T3 clone 17
[29] = BMP-7 125 ng/ml, 24 hours, 2T3 clone 17
[30] = BMP-7 250 ng/ml, 24 hours, 2T3 clone 17
[31] = BMP-7 500 ng/ml, 24 hours, 2T3 clone 17
[32] = BMP-7 1000 ng/ml, 24 hours, 2T3 clone 17

Molecule: CC[C@H](C)[C@H](NC(=O)[C@H]([C@@H](C)CC)N(C)C(C)=O)C(=O)N[C@H](C(=O)N[C@@H](CC(C)C)C(=O)[C@@]1(C)CO1)[C@@H](C)O [Epoxomicin, epoxomicin, reference compound]
- Effect of 24 hour conditioned medium of treated MG-63 cells on the reporter construct [1]: CM stimulated the reporter construct in a concentration-dependent manner
- Luciferase Activity [2, 5]: 0.041
- Luciferase Activity (fold increase) [2, 5]: 1.0 fold
- Luciferase Activity [2, 6]: 0.064
- Luciferase Activity (fold increase) [2, 6]: 1.6 fold
- Luciferase Activity [2, 7]: 0.098
- Luciferase Activity (fold increase) [2, 7]: 2.4 fold
- Luciferase Activity [2, 8]: 0.142
- Luciferase Activity (fold increase) [2, 8]: 3.5 fold
- Luciferase Activity [2, 9]: 0.153
- Luciferase Activity (fold increase) [2, 9]: 3.7 fold
- Luciferase Activity [2, 10]: 0.120
- Luciferase Activity (fold increase) [2, 10]: 2.9 fold

B1: BMP-4: Bone morphogenetic protein 4 (protein, UniProt P12644 293-408, looked up)
Bone morphogenetic protein 4: SPKHHSQRARKKNKNCRRHSLYVDFSDVGWNDWIVAPPGYQAFYCHGDCPFPLADHLNSTNHAIVQTLVNSVNSSIPKACCVPTELSAISMLYLDEYDKVVLKNYQEMVVEGCGCR
- Minimal effective dose [3]: 0.1 to 0.2 ng/mL
- Effect on luciferase activity of the reporter construct ([2]; 24 hours): stimulated luciferase activity in a dose-dependent manner
- Luciferase Activity [2, 11]: 0.0745
- Luciferase Activity (fold increase) [2, 11]: 1.6 fold
- Luciferase Activity [2, 12]: 0.111
- Luciferase Activity (fold increase) [2, 12]: 2.3 fold
- Luciferase Activity [2, 13]: 0.141
- Luciferase Activity (fold increase) [2, 13]: 2.9 fold
- Luciferase Activity [2, 14]: 0.384
- Luciferase Activity (fold increase) [2, 14]: 8.0 fold
- Luciferase Activity [2, 15]: 0.597
- Luciferase Activity (fold increase) [2, 15]: 12.4 fold
- Luciferase Activity [2, 16]: 0.821
- Luciferase Activity (fold increase) [2, 16]: 17.1 fold
- Luciferase Activity [2, 17]: 1.064
- Luciferase Activity (fold increase) [2, 17]: 22.2 fold
- Luciferase Activity [2, 18]: 1.256
- Luciferase Activity (fold increase) [2, 18]: 26.2 fold
- Luciferase Activity [2, 19]: 1.534
- Luciferase Activity (fold increase) [2, 19]: 32.0 fold
- Luciferase Activity [2, 20]: 1.576
- Luciferase Activity (fold increase) [2, 20]: 32.8 fold
- Luciferase Activity [2, 21]: 1.887
- Luciferase Activity (fold increase) [2, 21]: 39.3 fold
- Luciferase Activity [2, 22]: 2.166
- Luciferase Activity (fold increase) [2, 22]: 45.1 fold
- Effect on luciferase activity of the reporter construct [4]: stimulated luciferase activity in a dose-dependent manner

B2: BMP-7: Bone morphogenetic protein 7 (protein, UniProt P18075 293-431, looked up)
Bone morphogenetic protein 7: STGSKQRSQNRSKTPKNQEALRMANVAENSSSDQRQACKKHELYVSFRDLGWQDWIIAPEGYAAYYCEGECAFPLNSYMNATNHAIVQTLVHFINPETVPKPCCAPTQLNAISVLYFDDSSNVILKKYRNMVVRACGCH
- Minimal effective dose [3]: 15 to 30 ng/mL
- Effect on luciferase activity of the reporter construct ([2]; 24 hours): stimulated luciferase activity in a dose-dependent manner
- Luciferase Activity [2, 23]: 0.076
- Luciferase Activity (fold increase) [2, 23]: 1.1 fold
- Luciferase Activity [2, 24]: 0.090
- Luciferase Activity (fold increase) [2, 24]: 1.3 fold
- Luciferase Activity [2, 25]: 0.108
- Luciferase Activity (fold increase) [2, 25]: 1.6 fold
- Luciferase Activity [2, 26]: 0.148
- Luciferase Activity (fold increase) [2, 26]: 2.2 fold
- Luciferase Activity [2, 27]: 0.216
- Luciferase Activity (fold increase) [2, 27]: 3.2 fold
- Luciferase Activity [2, 28]: 0.374
- Luciferase Activity (fold increase) [2, 28]: 5.6 fold
- Luciferase Activity [2, 29]: 0.813
- Luciferase Activity (fold increase) [2, 29]: 12.1 fold
- Luciferase Activity [2, 30]: 1.425
- Luciferase Activity (fold increase) [2, 30]: 21.3 fold
- Luciferase Activity [2, 31]: 2.224
- Luciferase Activity (fold increase) [2, 31]: 33.2 fold
- Luciferase Activity [2, 32]: 3.404
- Luciferase Activity (fold increase) [2, 32]: 50.8 fold
- Effect on luciferase activity of the reporter construct [4]: stimulated luciferase activity in a dose-dependent manner
